Reference: the supplement of paper PMC9170038

Tested on: MS2 coat protein
Experiment: apparent KD of MS2 coat protein, switch OFF state (with FMN for OFF switches, without FMN for ON switches); designed switch direction (-1 OFF switch, 1 ON switch): -1; higher = weaker reporter binding
Conditions: FMN input: 0 or 200 uM; Eterna round: R93 (includes R88 designs)
Summary of the method: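 In 100 mM Tris-HCl pH 7.5 with 80 mM KCl and 4 mM MgCl2, and without or with constant ligand, SNAP-549-labelled MS2 coat protein was titrated in twofold steps from 0.7 or 1.5 nM to 3 µM. Per-step times went from 0.8–1.5 h down to 10–20 min. The RNA switches were transcribed on-chip from Illumina sequencing clusters, and apparent KD is the per-design median of normalised cluster binding-curve fits.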

**Q.** Which “apparent KD of MS2 coat protein” value does the source give for “AAUAACCGAGGAUAUACAAAACUUGUGAUCUAGUGGAUUUUACAUGAGGAUCACCCAUGUAGAAGGCGGAAAAG [Veenquge]” here?
**A.** 0.212 µM

**Q.** With “AAAAAGUGAGGAUAUACGAUGUGGAGUAGACACAACCAGACGUAGAAGGCACAUGAGGAUCACCCAUGUCCAAA [EX4 Malc#17]” as the sequence, how does the “apparent KD of MS2 coat protein” value read?
**A.** 0.0286 µM

**Q.** “AAAAAGUGAGGAUAUACGUUGAAAAAAAAAAAAAAAAAGCGGUAGAAGGCACAUGAGGAUCACCCAUGUAAAAA [Ex4 Malc#4]” was tested. Which “apparent KD of MS2 coat protein” value did it give?
**A.** 0.0225 µM

**Q.** Which “apparent KD of MS2 coat protein” value does the source give for “AAGAGUAGAGGAUAUACAUGAGGAUCACCCAUGUAAUCCAGAUAAGGAAGCAUGUCGUGUAGAAGGCUGCAUGA [MOD 2 of Nando (MS2 Riboswitches- Exclusion 3)]” here?
**A.** 0.0144 µM

**Q.** “GGAAAACAUGAGGAUCACCCAUGUAAGGAUAUGCUAAAAAAAAAAAAAAAAAAAAAAUGCAGAAGGUACUAAAG [Amethyst 18]” was tested. Which “apparent KD of MS2 coat protein” value did it give?
**A.** 0.118 µM

**Q.** With “AAAGGACGAGGAUAUACAUGAGGAUCACCCAUGUAAAAAACAUAGUAAAAGAGCUUGUGUAGAAGGCGUCCAAA [Meechl Ex3 2 R2 v8]” as the sequence, how does the “apparent KD of MS2 coat protein” value read?
**A.** 0.215 µM

**Q.** “CAAAAGGAAGGAUAUACAUAAUAAAACGGGCGGGCACCUUGACAUGAGGAUCACCCAUGUAGAAGGUCCAAUAA [Ramaanan]” was tested. Which “apparent KD of MS2 coat protein” value did it give?
**A.** 0.0181 µM

**Q.** “AAAAAGUUAGGAUAUACAUGAGGAUCACCCAUGUGCACGUAUGGAGAAUAUGGUGGUAGUAGAAGGGACAAAAA [EX2 Malc#18]” was tested. Which “apparent KD of MS2 coat protein” value did it give?
**A.** 0.0666 µM

**Q.** Which “apparent KD of MS2 coat protein” value does the source give for “AAAAAUGGAGGAUAUACAUGAGGAUCACCCAUGUGUAACUAUACUAAGCACAAAAAAAGUAGAAGGCCAAAAAA [Gilly Gone Silly 9 - Jieux - Exclusion 3]” here?
**A.** 0.0574 µM

**Q.** How did the “apparent KD of MS2 coat protein” value turn out when “CAAAGGUGAGGAUAUACGAGGAUAUGACGAAAGUCAUAAAAACAUGAGGAUCACCCAUGUAGAAGGCACCACAA [E2 64% 5]” was run?
**A.** 0.0328 µM

**Q.** With “AAUAUGUAAGGAUAUGCUGCUCGUCACAAAAGUGAUGAGUAGCAGAAGGUACAUGAGGAUCACCCAUGUAAAGA [JL eternac mod 13]” as the sequence, how does the “apparent KD of MS2 coat protein” value read?
**A.** 0.052 µM

**Q.** Which “apparent KD of MS2 coat protein” value does the source give for “CUCAUGUGAGGAUAUCAGUAGUAAAAAAAAAAAAUUACUACUGAGAAGGCACAUGAGGAUCACCCAUGUACCUU [EX4 326: Super Stable 26]” here?
**A.** 0.0426 µM

**Q.** “AAGUACGAAGGAUAUACAUGGAUAUACAUUCAUGUGGACCUACAUGAGGAUCACCCAUGUAGAAGGUCGUAAUA [Mat - Same state - Mayanna Mod - D145]” was tested. Which “apparent KD of MS2 coat protein” value did it give?
**A.** 0.0128 µM

**Q.** For “AAGGUACGAGGAUAUACAUAGAUACAGACACAUGUACAUGUACAUGAGGAUCACCCAUGUAGAAGGCGUAUAUG [Mat - Same state - Mayanna Mod - D109]”, which “apparent KD of MS2 coat protein” value is on record?
**A.** 0.0739 µM

**Q.** With “AAAGUGUCAGGAUAUGCGAAGGCAUCUGACAGAUGAGGAUCGCAGAAGGGACAUGAGGAUCACCCAUGUAAAAA” as the sequence, how does the “apparent KD of MS2 coat protein” value read?
**A.** 0.117 µM

**Q.** How did the “apparent KD of MS2 coat protein” value turn out when “AACAUACAUGAGGAUCACCCAUGUCAGGAUAUGCCGGGUUAGAGCCAACUGAAAAACCGUAGAAGGGACGAAAA [Bilbo Confounded 8 - Jieux - Exclusion 1]” was run?
**A.** 0.0795 µM

**Q.** For “AAGAAGUGAGGAUAUCCAAAAGAAAAGAAAAGAAAAGAAAAGGAGAAGGCACAUGAGGAUCACCCAUGUAAGAA [Ankhkaenre Psamtik III]”, which “apparent KD of MS2 coat protein” value is on record?
**A.** 0.0284 µM

**Q.** For “AAAAAGGCAGGAUAUACAUGAGGAUCACCCAUGUUAAAAAAAAAAAAAAAAAAAAAGUGUAGAAGGGCCAAAAA [Default title]”, which “apparent KD of MS2 coat protein” value is on record?
**A.** 0.0476 µM

**Q.** How did the “apparent KD of MS2 coat protein” value turn out when “AACAGUACAGGAUAUACAUGAGGAUCACCCAUGUGAGAAUUAAAAGGCGUACCUAAAUGUAGAAGGGUACUGGA [JL Maslow Revisted mod 19]” was run?
**A.** 0.0618 µM

**Q.** Which “apparent KD of MS2 coat protein” value does the source give for “AAAAAGUGAGGAUAUACGCUGAAGAGAAGACACAACCAGGCGUAGAAGGCACAUGAGGAUCACCCAUGUACAAA [Ex4 Malc#8]” here?
**A.** 0.0273 µM

**Q.** “AAAAAGGGAGGAUAUACAGGAGGUAAGGUCAAAAAAAAAAAACAUGAGGAUCACCCAUGUAGAAGGUUUAAAAA [Ecls2-V]” was tested. Which “apparent KD of MS2 coat protein” value did it give?
**A.** 0.031 µM

**Q.** How did the “apparent KD of MS2 coat protein” value turn out when “GGGUCACAUGAGGAUCACCCAUGUAAGGAUAUGCUAGGGAUGGAAGCCAGGCCGCAACGCAGAAGGUACUAAAG [Janelle Amethyst 18 Mod 14 - Jieux - Exclusion 1]” was run?
**A.** 0.0547 µM

**Q.** How did the “apparent KD of MS2 coat protein” value turn out when “CUCAAGUAAGGAUAUCUAAGAAAAGAAGAGAAAGAAAAGAAAGAGAAGGUACAUGAGGAUCACCCAUGUAAGAA [EteRNA is fun!]” was run?
**A.** 0.0299 µM

**Q.** How did the “apparent KD of MS2 coat protein” value turn out when “AAAAAGUGAGGAUAUACAUGAGGAUCACCCAUGUGAAAGUCGAAAAAAAAGACAAAAAGUAGAAGGCACAAAAA [Fiskers Exclusion 3 D2]” was run?
**A.** 0.0303 µM

**Q.** For “AAAGGAGUAGGAUAUACAUGAGGAUCACCCAUGUAAAAAACAUAAUAAAAGAACUUAUGUAGAAGGGCUCCAAA [69%, Moding Meechl, 11]”, which “apparent KD of MS2 coat protein” value is on record?
**A.** 0.0779 µM

**Q.** Which “apparent KD of MS2 coat protein” value does the source give for “AAAAAGUAAGGAUAUCUGGAUAGGAAAAAGAAAACCUAUCCAGAGAAGGUACAUGAGGAUCACCCAUGUAAAAA [Opal 30]” here?
**A.** 0.0141 µM

**Q.** For “AAAUGUUGAGGAUAUACAUGAGGAUCACCCAUGUGUAAAAAUAAAUACACAAAAGAAAGUAGAAGGCAACAAAA [Ex 3 May 11]”, which “apparent KD of MS2 coat protein” value is on record?
**A.** 0.0797 µM

**Q.** “AAAUUGUCAGGAUAUCGUAGAAUAGUGAAAAACUAGAGCUACGAGAAGGGACAUGAGGAUCACCCAUGUAAAAC [May 92]” was tested. Which “apparent KD of MS2 coat protein” value did it give?
**A.** 0.0544 µM

**Q.** For “GGUUGGCGAGGAUAUACAUGAGGAUCACCCAUGUGAGAGAAAAAAGUAAGAAAGAAAAGUAGAAGGCGCUGACG [salish99-ex3-51]”, which “apparent KD of MS2 coat protein” value is on record?
**A.** 0.0878 µM

**Q.** With “AAUUAGGUAGGAUAUACAUGAGGAUCACCCAUGUGGGAAAAAAACUACGAAAAAGAAUGUAGAAGGACCUAAAA [Mat - Exclusion 3 - Mayanna mod - D104]” as the sequence, how does the “apparent KD of MS2 coat protein” value read?
**A.** 0.0965 µM

**Q.** How did the “apparent KD of MS2 coat protein” value turn out when “AAGAAGACAGGAUAUACAUGAGGAUCACCCAUGUAAAAGAAAGAAGGGAAAGAGAAAAGUAGAAGGGUCAAGAA [Menkheperre Ini]” was run?
**A.** 0.0253 µM

**Q.** “AACUGGGCAGGAUAUACAUGAGGAUCACCCAUGUAAAGAAAAGAAAGAUCCGAAGAAAGUAGAAGGGCCUGGAA [Variant 3 of Mod 1 of Ex3 sub 3, by Tesla's Dusciple Round 1]” was tested. Which “apparent KD of MS2 coat protein” value did it give?
**A.** 0.126 µM

**Q.** “AAAAAGGCAGGAUAUACAUGAGGAUCACCCAUGUAAAGAAAGAAAGAAGAAAGGGAAAGUAGAAGGGCCAAAAA [Ex3 sub 1]” was tested. Which “apparent KD of MS2 coat protein” value did it give?
**A.** 0.0412 µM

**Q.** For “AAUAAGAGAGGAUAUACAUAAUAAAAGAAAAGAAACAAAGAACAUGAGGAUCACCCAUGUAGAAGGCUCAAUAA [Sonbef]”, which “apparent KD of MS2 coat protein” value is on record?
**A.** 0.0189 µM

**Q.** With “CAGUACUGAGGAUAUACAUGAGGAUCACCCAUGUGGGAAAGCUACGAAAGUAGCAAAUGUAGAAGGCAGUACUG [Ex3: 805]” as the sequence, how does the “apparent KD of MS2 coat protein” value read?
**A.** 0.0987 µM

**Q.** With “AGUAUGCGAGGAUAUACAUGAGGAUCACCCAUGUGAGAGAUAUGAGUGAGAAAGACAAGUAGAAGGCGCGUACA [JL Lego Mod 26]” as the sequence, how does the “apparent KD of MS2 coat protein” value read?
**A.** 0.0114 µM

**Q.** How did the “apparent KD of MS2 coat protein” value turn out when “AUAAAGCGAGGAUAUACAUGAGGAUCACCCAUGUAAAUAAAUAGGAGAGCCACAAUAAGUAGAAGGUGCAAUAA [JR_Exc003_Sub008]” was run?
**A.** 0.0465 µM

**Q.** For “ACCUGACAUGAGGAUCACCCAUGUGAGGAUAUGUACAUCAGGAAAAAAAAACUGAUGUACAGAAGGCACAAGGG [Amethyst 49]”, which “apparent KD of MS2 coat protein” value is on record?
**A.** 0.0387 µM

**Q.** With “AACAGGACAGGAUAUACAUGAGGAUCACCCAUGUGAGAAUUCAGUAGAUUGCCACAGAGUAGAAGGGUCCUGGA [Ruby 100]” as the sequence, how does the “apparent KD of MS2 coat protein” value read?
**A.** 0.102 µM

**Q.** “AACAGUACAGGAUAUACAUGAGGAUCACCCAUGUGAAGAAUAAGUGGAGUACCACAAAGUAGAAGGGUACUGGA [Ruby 88]” was tested. Which “apparent KD of MS2 coat protein” value did it give?
**A.** 0.104 µM

**Q.** How did the “apparent KD of MS2 coat protein” value turn out when “AAAAAAGGAGGAUAUACGAACAUGUCGAAAGACGUGAAGGGACAUGAGGAUCACCCAUGUAGAAGGUCUAAAAA [Mat - Exclusion 2 - JL mod - D87]” was run?
**A.** 0.0299 µM

**Q.** With “AACAUGUCAGGAUAUGUAGCAUGAUACGAAAGUAUCAUGCUACAGAAGGGACAUGAGGAUCACCCAUGUGAUCA [Ex4: 940]” as the sequence, how does the “apparent KD of MS2 coat protein” value read?
**A.** 0.022 µM

**Q.** “AACUGACAUGAGGAUCACCCAUGUCAGGAUAUGCUUCAUAAAAUAAAAAUAAAAUGAUGCAGAAGGGACAUGAA [Design 27 :P Sub-opt 3]” was tested. Which “apparent KD of MS2 coat protein” value did it give?
**A.** 0.0135 µM

**Q.** Which “apparent KD of MS2 coat protein” value does the source give for “AACAGUACAGGAUAUACAUGAGGAUCACCCAUGUGAGAAAUAAGUGGCGUACCACAAAGUAGAAGGGUACUGGA [Mat - Exclusion 3 - JL mod - D21]” here?
**A.** 0.15 µM

**Q.** For “ACGACUAGAGGAUAUACAUGAGGAUCACCCAUGUAACUGUCAGAAAACUGACGGAGAUGUAGAAGGCUAGUCGA [Mat - Exclusion 3 - Neo mod - D80]”, which “apparent KD of MS2 coat protein” value is on record?
**A.** 0.0361 µM
